Reference: paper PMC5698441, “Molecular basis of AKAP79 regulation by calmodulin” (Nature Communications, 2017)

Biological target: T1, biotin-CaM and GST-AKAP79 (1–153) (Homo sapiens, UniProt P0DP23)
T1 construct: made in house; host or cells: E. coli BL21 (DE3)
Assay: alphascreen disruption of biotin-CaM / GST-AKAP79 (1–153) interaction
Assay type: binding
Details: 20-mer scanning peptides at 100 nM; biotin-CaM 10 nM; 1 mM CaCl2, 20 mM HEPES pH 7.2; preincubation 1 h 22 °C; mean ± s.e.m., n = 5 (Fig. 2d)
Procedure: To examine whether this could correspond to the CaM-binding site in AKAP79, we used a complementary method - the amplified luminescent proximity homogenous assay (alpha)-screen technique-to scan the N-terminus of AKAP79 for sequences that could mediate interactions with CaM. […] We screened peptides derived from the N-terminus of AKAP79 for their ability to reduce alphascreen emission. […] The effect of each peptide at 100 nM concentration on CaM–AKAP79 (1–153) interaction is shown in Fig. 2d as log2 emission ratios (with/without peptide).
To determine whether these basic amino acids contribute to the interaction, we compared how effectively peptides of different lengths could disrupt CaM–AKAP79 interaction.
In general, assays were performed in 50 μL buffer consisting of 20 mM HEPES pH 7.2, 100 mM NaCl, 0.1% BSA, 1 mM EGTA, 5 mM MgCl2, 1 mM CaCl2. CaCl2 was excluded where appropriate.
To determine the K Ca for CaM binding to calcineurin and AKAP79, the CaCl2 concentration was varied to produce different free Ca^2+ concentrations on the basis of calculations using maxchelator[43]. After initial incubations, anti-GST acceptor beads (PerkinElmer) were added at 10 ng/μL. […] After 1 h further incubation with vigorous shaking in a thermomixer (1200 r.p.m.), light emission at 568 nm was measured following excitation with a 680 nm laser using a Mithras LB 940 (Berthold Technologies). […]

Substance: D: 20-mer peptide of the AKAP79 N-terminus walk, positions 36-55 (CFKRRKKAAKALKPKAGSEA; UniProt P24588 36-55, looked up, fragment)
- alphascreen signal compared to untreated samples (emission ratio with/without peptide): did not
